Measurements taken from the supplement of paper PMC10567573.
± gives the standard deviation.

Assay: protein stability index of a GFP-peptide fusion (GPS, HEK-293T) (PSI 1-6); higher = more stable
Conditions: c terminus: a fixed tail appended
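Also: 24-mer peptide tiles fused after GFP, lentivirally expressed, FACS-sorted into six equal bins by GFP/DsRed ratio, decoded by Illumina sequencing, PSI is the read-weighted mean bin number.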

Row | Sequence | protein stability index (treatment: DMSO) | protein stability index (treatment: MLN4924 1 uM, 8 h)
1 | VGGATPDQTTSEETVGGAILDQTT [HDAC6] | 5.48 ± 0.49 | 5.43 ± 0.35
2 | QKHYVYGPLPQSFDKEWVAKQTKR [COX4I1] | 3.55 ± 0.41 | 3.7 ± 0.28
3 | QVAMPYQWEYPYLLSILPSLLGLL [JAGN1] | 2.8 ± 0.36 | 2.85 ± 0.64
4 | PSLGDSLESIPSLSQSPEPGRRGD [RTN2] | 5.32 ± 0.45 | 5.48 ± 0.12
5 | HECVNMEESYYCRCHRGYTLDPNG [MATN2] | 3.44 ± 0.67 | 3.36 ± 0.52
6 | TQYVRHSSDPFYTPEPDTCHELLG [TPH1] | 3.63 ± 0.35 | 4 ± 0.32
7 | HDCAESGSLDIMKMLLMYCAKMEK [FEM1C] | 2.16 ± 0.3 | 2.13 ± 0.22
8 | TYIPENNARGASIFSVTALDPDSK [PCDHGA10] | 4.49 ± 0.17 | 4.62 ± 0.15
9 | ENLDNDTETDSLVSAQRERPRRRD [DVL3] | 5.51 ± 0.2 | 5.41 ± 0.29
10 | QACSLPASCCIDPREDGASVNDQC [TSPAN10] | 5.06 ± 0.27 | 5.11 ± 0.25
11 | TDVRGLEEFLSAMQSARGPTPSSP [PLEKHN1] | 4.12 ± 0.16 | 4.14 ± 0.38
12 | TPEELEEEIPVVICAAAGRMGATM [GLT8D2] | 4.25 ± 0.26 | 4.29 ± 0.21
13 | PGGNVKGVWAPPAPGFGEDVPNRL [BEX5] | 3.95 ± 0.18 | 4.16 ± 0.23
14 | YSWNNRCMVEIVQKYDPDKDEWHK [KLHL13] | 2.84 ± 0.42 | 2.86 ± 0.25
15 | VCAICQINLEGKTFYSKKDRPLCK [PDLIM7] | 2.1 ± 0.44 | 2.42 ± 0.5
16 | KFADNKWSVTGKAEPAMPGRLYVH [TBX5] | 2.53 ± 0.094 | 2.61 ± 0.27

Row | Sequence | protein stability index (treatment: DMSO) | protein stability index (treatment: MLN4924 1 uM, 8 h)
17 | ENARSGAEAEPEDQDEGEWGLDQE [ZBED1] | 5.62 ± 0.15 | 5.56 ± 0.28
18 | TLVGCWSDVVGRRSSLLACILLSA [MFSD9] | 2.84 ± 0.38 | 2.71 ± 0.4
19 | VQKLVKVCTDTDRWSLISLSNKNG [TENT5C] | 2.64 ± 0.034 | 2.85 ± 0.26
20 | RPRALPCQRSRYRDSLTQPDEEPM [RSPH3] | 4.62 ± 0.36 | 5.01 ± 0.17
21 | LDFKDLLESEDWEEDNWDPELMEH [TEX19] | 4.86 ± 0.091 | 4.94 ± 0.26
22 | VKVPGIVRLRTLLCKVLGVLFSVA [CLCN6] | 2.21 ± 0.32 | 2.19 ± 0.29
23 | PAPSPHEEPCSPGLLQDQGSGLSS [CBY2] | 5.31 ± 0.22 | 5.194 ± 0.04
24 | GGAICGGPDHRLRLWRLFQTLDVN [SLC25A25] | 2.33 ± 0.27 | 2.48 ± 0.42
25 | RIIYQNKCMRNGPNALIASLALGD [EDNRA] | 2.48 ± 0.18 | 2.26 ± 0.21
26 | GTILNYLRDGAVPLPESRREIEEL [KCTD10] | 3.98 ± 0.19 | 4.15 ± 0.073
27 | VSDPQHAARLLRALSSFREESRFC [GAN] | 2.59 ± 0.068 | 2.72 ± 0.19
28 | IMLLDKNVPNPRIKLIDFGIAHKI [DAPK3] | 2.89 ± 0.73 | 2.52 ± 0.46
29 | LDVIERDLHRQFPFHEMFVSRGGH [TBC1D10A] | 2.98 ± 0.3 | 2.86 ± 0.21
30 | LGFGSAKEAVTGSRLGQGIGPIHL [LOXL2] | 2.7 ± 0.26 | 2.64 ± 0.073
31 | FFINEAMELKVGDFGLAARLEPLE [PLK2] | 2.61 ± 0.14 | 2.68 ± 0.18
32 | LRRKTPRHKQPTLLMVRASRRSGK [C6orf223] | 3.61 ± 0.13 | 4.04 ± 0.22
